Data: patent publication US6033894A, “Kaposi's Syndrome Herpesvirus protease and assembly protein compositions and methods” (The Regents of the University of California, priority 1998, dated 2000)
Residue numbers refer to the chain shown, from its start. In names and notes the source's numbering stands. Entries after “also recorded” stand apart in the source; their conditions may differ. Peptide text beside a SMILES is read from it. * marks the point of attachment. Boc = CC(C)(C)OC(=O)*; CH2Cl = ClC*

Assays:
[1] = target: T1, KSHV protease Pr(S204G), an autolytically stable variant (Human herpesvirus 8 strain GK18, UniProt Q2HRB6, S204G); assay: Fluorometric enzyme assay, inhibition of KSHV protease; format: biochemical, Kaposi's Sarcoma Herpesvirus (KSHV); conditions: 0.5 μM enzyme Pr(S204G), 300 μM inhibitor, 15 min pre-incubation, 20 μM fluorogenic substrate
T1 construct: S204G, untagged, recombinant in E. coli; source DNA from pulmonary KS tumor clone
T1 sequence (Q2HRB6 1-230 A226V): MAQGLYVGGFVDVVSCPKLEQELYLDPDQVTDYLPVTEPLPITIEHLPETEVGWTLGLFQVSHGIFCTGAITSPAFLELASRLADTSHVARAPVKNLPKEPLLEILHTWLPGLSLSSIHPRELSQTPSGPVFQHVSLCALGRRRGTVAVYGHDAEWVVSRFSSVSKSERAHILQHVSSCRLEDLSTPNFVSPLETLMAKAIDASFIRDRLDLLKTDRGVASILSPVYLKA

[2] = system: KSHV-infected B-cell line, BCBL-1; assay: Northern blot of KSHV AP and Pr/AP transcripts in BCBL-1 cells; format: cell-based; design: production of 0.95 kb AP transcript / production of 0.95 kb and 2.3 kb transcripts: dose or concentration left out as unconfirmed
Text: The KSHV-infected B-cell line, BCBL-1, was employed for transcription of the KSHV Pr/AP and AP genes during lytic infection. This cell line harbors the viral genome in latent form, and treatment of these cells with TPA induces lytic replication (Renne, et al., 1996). Equivalent amounts of poly(A)-enriched RNA from uninduced or induced BCBL-1 cells in the presence or absence of phosphoroformic acid (PFA), an inhibitor of herpesviral DNA replication, were separated on a formaldehyde/agarose gel, transferred to a membrane, and hybridized to a probe derived from the 1.5 kb fragment containing the Pr/AP ORF of KSHV, as detailed in Example 6.
BCBL-1 cells (Renne, et al., 1996) were treated with phosphoroformic acid (PFA) at a concentration of 500 mM for at least 3 days prior to induction. Untreated and PFA treated cells were then split into identical flasks, at 3×10^5 cells/ml, and left unstimulated or induced with 12-O-tetradecanoyl phorbol-13-acetate (TPA) at a concentration of 20 ng/ml. After 48 hours, total RNA was harvested using RNAzol B as recommended by the manufacturer (Tel-Test, Friendwood, Tex.). To enrich the polyadenylated RNA fraction, 300 μg RNA samples, uninduced and induced with TPA, and with and without PFA treatment, were affinity purified using the Oligotex mRNA purification system (Qiagen, Chatsworth, Calif.). RNA was separated on a 1% agarose, 17% formaldehyde gel, transferred to Hybond-N nylon membrane in 10× SSC for 5 hours, and UV-crosslinked. The 1.5 kb insert from pBS1.5 was gel purified and labelled using the rediPrime Random Prime kit (Amersham Corporation, Arlington Heights, Ill.). Hybridization was performed as according to standard methods (Renne, et al., 1996), and the blot was exposed to Kodak XAR5 film for 8 hours.

[3] = target: fluorogenic peptide substrate DABCYL-Arg-Gly-Val-Val-Asn-Ala-Ser-Ser-Arg-Leu-Ala-EDANS (HCMV)
[4] = system: HCMV M-site peptide substrate DABCYL-[…]-EDANS; assay: Continuous fluorometric assay of cleavage of fluorogenic peptide substrate; format: biochemical; conditions: for increase in fluorescence intensity (F/Fo) from peptide hydrolysis: 1.5 μM enzyme, 10 μM substrate, pH 5.5, 37° C., by five hours; for rate of hydrolysis of HCMV substrate relative to 1.5 μM wild-type KSHV Pr: 1 μM trypsin D102N or 1 nM trypsin vs 1.5 μM KSHV Pr, one-hour time course; for proteolytic activity relative to KSHV Pr: assayed according to the method of Example 5
Experimental: Such activities can be determined by comparing the activity of a KSHV PR, as defined herein, to that of the KSHV Pr having the sequence SEQ ID NO:7. For example, in experiments carried out in support of the present invention, recombinantly produced His6 -KSHV Pr and variant His6 -KSHV Pr(S114A) proteins were tested for ability to cleave a synthetic peptide substrate. The substrate, containing the HCMV M-site peptide sequence RGVVNASSRLA (SEQ ID NO:15) flanked by a fluorogenic donor-acceptor pair, allows for continuous monitoring of peptide hydrolysis due to fluorescence enhancement arising from donor-acceptor separation (Holskin, et al., 1995). This substrate contains an internal Arg residue, allowing for cleavage by trypsin, an extremely well-characterized serine protease.
Protease assays using the fluorogenic peptide substrate DABCYL-Arg-Gly-Val-Val-Asn-Ala-Ser-Ser-Arg-Leu-Ala-EDANS, where RGVVNASSRLA (SEQ ID NO:15) was obtained from BACHEM (King of Prussia, Pa.), were monitored optically by a Perkin-Elmer LS-5B luminescence spectrophotometer interfaced with a Macintosh SE-30 computer. DABCYL represents 4-(4'-Dimethylaminophenylazo)benzoic acid, and EDANS signifies (2'-aminoethylamino)-naphthalene-1-sulfonic acid. His6 -Pr and His6 -Pr(S114A) were diluted 10-fold from storage buffer into assay buffer (50 mM NaOAc (pH 5.5), 20% (v/v) glycerol, 0.1 mM EDTA, 0.1 mM DTT), equilibrated to 37° C. for 5 minutes in thermostatted quartz cuvettes, and manually mixed with a final substrate concentration of 10 μM. A pH 5.5 buffer was utilized due to slightly higher proteolytic activity than that observed in pH 7.5 Tris-based solutions. The final KSHV Pr concentrations were 1.5 μM. Time-evolved fluorescence enhancement was followed by exciting the samples at 355 nm and detecting emission at 495 nm. Trypsin and its D102N variant (Craik, et al., 1987) were diluted into the same assay buffer to final concentrations of 1 nM and 1 μM, respectively, and treated identically to the KSHV enzymes. The ratio of fluorescence at each time point (F) was then compared with the initial fluorescence output (FO) to generate plots of F/FO vs. time.

[5] = target: fluorogenic peptide substrate DABCYL-Arg-Gly-Val-Val-Asn-Ala-Ser-Ser-Arg-Leu-Ala-EDANS (HCMV); remark: listed apart in the source

CC(C)C[C@H](NC(=O)[C@H](Cc1ccc(O)cc1)NC(=O)OC(C)(C)C)C(=O)N[C@@H](CCCCN)C(=O)N[C@@H](C)C(=O)CCl [Boc-YLKA-COCH2 Cl] (Boc-YLKA-CH2Cl)
inhibition of protease activity [1]: Complete inhibition

O=C(O)P(=O)(O)O [PFA, phosphoroformic acid]
production of 0.95 kb and 2.3 kb transcripts ([2]; TPA-induced BCBL-1 cells): strongly inhibited
production of 0.95 kb AP transcript ([2]; uninduced BCBL-1 cells): strongly inhibited

CCCCCCCCCCCCCC(=O)O[C@@H]1[C@@H](C)[C@@]2(O)[C@@H](C=C(CO)C[C@]3(O)C(=O)C(C)=C[C@@H]23)[C@@H]2C(C)(C)[C@]12OC(C)=O [TPA, 12-O-tetradecanoyl phorbol-13-acetate]
production of 0.95 kb AP transcript upon lytic induction ([2]; BCBL-1 cells, TPA 20 ng/ml, 48 hours): strongly upregulated

KSHV His6-Pr (enzyme)
fluorescence enhancement (F/Fo) from hydrolysis of the fluorogenic peptide (fold increase in fluorescence intensity) [3]: 3

KSHV Pr: recombinant KSHV protease (SEQ ID NO:7) with amino-terminal His6 tag, expressed in E. coli
increase in fluorescence intensity (F/Fo) from peptide hydrolysis [4]: nearly three-fold increase

trypsin D102N (from UniProt P00763) (enzyme)
fluorescence enhancement (F/Fo) from hydrolysis of the fluorogenic peptide (fold faster than KSHV Pr) [5]: 2

B1: trypsin D102N: trypsin in which the active site Asp residue has been replaced with Asn (protein)
chain: IVGGYTCQENSVPYQVSLNSGYHFCGGSLINDQWVVSAAHCYKSRIQVRLGEHNINVLEGNEQFVNAAKIIKHPNFDRKTLNNDIMLIKLSSPVKLNARVATVALPSSCAPAGTQCLISGWGNTLSSGVNEPDLLQCLDAPLLPQADCEASYPGKITDNMVCVGFLEGGKDSCQGDSGGPVVCNGELQGIVSWGYGCALPDNPGVYTKVCNYVDWIQDTIAAN
rate of hydrolysis of HCMV substrate relative to 1.5 μM wild-type KSHV Pr [4]: 2 fold
catalytic efficiency relative to trypsin ([4]; under the conditions used herein): roughly 5000 fold

B2: trypsin: extremely well-characterized serine protease used for comparison (protein)
chain: B1 chain
rate of hydrolysis of HCMV substrate relative to 1.5 μM wild-type KSHV Pr [4]: substantially more active than the KSHV enzyme

B3: S114A variant: KSHV protease variant in which the active-site Ser-114 was converted to Ala (protein)
chain (part 1 of 2): MRGS
chain (part 2 of 2): GSAQGLYVGGFVDVVSCPKLEQELYLDPDQVTDYLPVTEPLPITIEHLPETEVGWTLGLFQVSHGIFCTGAITSPAFLELASRLADTSHVARAPVKNLPKEPLLEILHTWLPGLALSSIHPRELSQTPSGPVFQHVSLCALGRRRGTVAVYGHDAEWVVSRFSSVSKSERAHILQHVSSCRLEDLSTPNFVSPLETLMAKAIDASFIRDRLDLLKTDRGVASILSPVYLKA
increase in fluorescence intensity (F/Fo) from peptide hydrolysis [4]: minimal enhancement
proteolytic activity relative to KSHV Pr [4]: 1/10

B4: Pr(S204G): KSHV protease variant engineered to stabilize the enzyme against autoproteolysis, expressed without His6 tag (protein)
chain: T1 sequence (Q2HRB6 1-230 A226V) with S204G
proteolytic activity relative to KSHV Pr [4]: essentially the same activity as Pr; also recorded: substantially the same activity as Pr
